Experimental data published in US10232056B2, “Method for measuring toxicity of human CSF” (KYOWA HAKKO KIRIN CO., LTD., priority 2014, dated 2019).

Key:
ICR mice [1] = assay: Effect of anti-Aβ antibody intravenous administration on mouse cognitive function impairment by AD patient CSF (Y-maze test, Example 4); format: in vivo; conditions: next day 10 μl AD patient CSF intraventricular, FIG. 4
Experimental: Next, mice that had intravenous administration of anti-Aβ oligomer antibody were measured for changes in cognitive function after AD patient CSF administration, using a Y-maze test. As the anti-Aβ oligomer antibody, an anti-Aβ oligomer humanized antibody 6E4HV0LV0 was produced according to the method disclosed in WO2011/016567 and known methods, and used in the experiment.
ICR mice were intravenously administered with 3 mg/kg of human IgG4 (Sigma-Aldrich), or 0.3 mg/kg, 1 mg/kg, or 3 mg/kg of 6E4HV0LV0.
On the next day, 10 μl of physiological saline (hereinafter, “Sham”) or the same amount of AD patient CSF (Precision Med) was administered into the cerebral ventricles of the mice under isoflurane anesthesia. Each mouse was then tested by Y-maze test in the same manner as in Example 1 to determine spontaneous alternation (%). The AD patient CSF and the physiological saline were administrated in 5 μl dose into each of the left and right cerebral ventricles.
In the following, mice that had intravenous administration of human IgG4, and intraventricular administration of Sham will be identified by using the notation “human IgG4 i.v.-Sham administered group.” Similar notations are used for mice administered with other samples.

ICR mice [2] = assay: Effect of anti-Aβ antibody pretreatment of AD patient CSF on mouse cognitive function impairment (Y-maze test, Example 5); format: in vivo; conditions: 10 μl intraventricular, FIG. 5
Experimental: For the purpose of evaluating a sample that more accurately reflects the actual clinical sample, the cognitive function of mice administered with an AD patient CSF pretreated with 6E4HV0LV0 was measured by Y-maze test.
6E4HV0LV0 was added to AD patient CSF (Precision Mod) to make the final concentration 1 ng/ml, 10 ng/ml, or 100 ng/ml, and the mixture was incubated at room temperature for about 1 hour.
Artificial cerebrospinal fluid [artificial spinal fluid (Otsuka Pharmaceutical Co., Ltd.) supplemented with 0.02 w/v % human serum albumin (Sigma-Aldrich)](hereinafter, “vehicle”) was added to AD patient CSF or physiological saline (hereinafter, “Sham”), and the mixture was incubated at room temperature. The prepared sample was preserved at −80° C., and used for the experiment after being thawed at room temperature on the day of the Y-maze testing.
The sample (10 μl each) was administered into the cerebral ventricles of ICR mice under isoflurane anesthesia, and each mouse was tested by Y-maze test in the same manner as in Example 1 to determine spontaneous alternation (%). Each sample was administrated in 5 μl dose into each the left and right cerebral ventricles of mice.
In the following, the sample with the AD patient CSF plus the vehicle will be identified by the notation “vehicle-AD CSF”. Similar notations are used for other samples.

ICR mice [3] = assay: Blind measurement of changes in cognitive function of mice after 6E4HV0LV0 pretreatment of CSF (Y-maze test, Example 6); format: in vivo, mouse; conditions: for Percentage improvement by 6E4HV0LV0 treatment (%): 10 μl intraventricular; for improvement of spontaneous alternation by 6E4HV0LV0 pretreatment: 10 ng/ml
Experimental: The cognitive function of mice administered with multiple normal CSFs or AD patient CSFs was measured in blind experiment by performing a Y-maze test in the same manner as in Example 1. The effect of 6E4HV0LV0 pretreatment was also examined at the same time. The experiment was conducted by separating testers who is responsible for dispensing normal CSFs or AD patient CSFs and preparing a 6E4HV0LV0-pretreated AD patient CSF for blind experiment, and who is responsible for administering the samples to mice, and conducting the Y-maze test.
Tester (A) randomly assigned numbers to the dispensed normal CSFs (Precision Med) and AD patient CSFs (Precision Med) for blind experiment. For the AD patient CSFs, samples were also prepared by adding 6E4HV0LV0 to each dispensed CSF to make the final concentration 10 ng/ml, and incubating the mixture at room temperature for about 1 hour. The dispensed and prepared CSF samples were all preserved at −80° C. until the day of the Y-maze testing.
On the day of the Y-maze testing, tester (B) received the samples prepared by tester (A) for blind experiment, and thawed the samples at room temperature. Each sample (10 μl) or physiological saline (10 μl; hereinafter, “Sham”) was administered into the cerebral ventricles of ICR mice under isoflurane anesthesia, and the mice were tested by Y-maze test in the same manner as in Example 1 to determine spontaneous alternation (%). The sample and the physiological saline were administrated in 5 μl dose into each of the left and right cerebral ventricles of mice.
A Y-maze test that used the AD patient CSFs pretreated with 6E4HV0LV0 was conducted at the same time. Percentage improvement of mouse spontaneous alternation by 6E4HV0LV0 pretreatment was calculated for each mouse by using the Formula (3) below. The results are shown under the column heading “Percentage improvement by 6E4HV0LV0 treatment (%)” in Table 1. Percentage improvement (%) of mouse spontaneous alternation by 6E4HV0LV0 pretreatment={(spontaneous alternation of mouse administered with AD patient CSF pretreated with 6E4HV0LV0)−(spontaneous alternation of mouse administered with the same AD patient CSF without 6E4HV0LV0 pretreatment)}/{(spontaneous alternation of Sham administered group)−(spontaneous alternation of mouse administered with the same AD patient CSF without 6E4HV0LV0 pretreatment)}×100 Formula (3)

B1: 6E4HV0LV0: anti-Aβ oligomer humanized antibody, VH SEQ ID NO: 1, VL SEQ ID NO: 2, produced according to WO2011/016567 (antibody, V domains shown)
VH: QVQLVQSGAEVKKPGASVKVSCKASGYTFTSYWMHWVRQAPGQGLEWMGEINPRNGGTNNNENFKRRVTITADTSTSTAYMELSSLRSEDTAVYYCARDGNYDPFAYWGQGTLVTVSS
VL: DIVMTQSPLSLPVTPGEPASISCRSSQSLVHSNGNTYLHWYLQKPGQSPQLLIYKVSNRFSGVPDRFSGSGSGTDFTLKISRVEAEDVGVYYCSQSTHVPPYTFGQGTKLEIK
With B1 as the molecule, how does the “spontaneous alternation compared to the human IgG4 i.v.-AD CSF administered group” value (ICR mice [1]; 3 mg/kg i.v.) read?
Its value is “significantly higher”.

What about the “spontaneous alternation compared to the human IgG4 i.v.-Sham administered group” value (ICR mice [1]; 3 mg/kg i.v.) of the same molecule?
Its value is “recovering to the same levels”.

What about the “spontaneous alternation, dose response” value (ICR mice [1]; 6E4HV0LV0 0.3, 1 or 3 mg/kg i.v.) of the same molecule?
The value was “increased with increase in the dose”.

What about the “spontaneous alternation compared to the vehicle-AD CSF administered group” value (ICR mice [2]; AD patient CSF pretreated at final concentration of 10 ng/ml or 100 ng/ml) of the same molecule?
The value was “higher”.

And the “spontaneous alternation compared to the vehicle-Sham administered group” value (ICR mice [2]; AD patient CSF pretreated at final concentration of 100 ng/ml)?
Its value is “recovering to the same levels”.

And the “Percentage improvement by 6E4HV0LV0 treatment (%)” value (shortened to “Percentage improvement … (%)”) (ICR mice [3]; AD patient CSF 8006_Visit 3 pretreated with 10 ng/ml)?
The value was 80.2%.

What about the “Percentage improvement … (%)” value (ICR mice [3]; AD patient CSF 8014_Visit 4 pretreated with 10 ng/ml) of the same molecule?
Its value is 59.7%.

What about the “Percentage improvement … (%)” value (ICR mice [3]; AD patient CSF 8026_Visit 2 pretreated with 10 ng/ml) of the same molecule?
Its value is 14.5%.

And the “Percentage improvement … (%)” value (ICR mice [3]; AD patient CSF 8029_Visit 2 pretreated with 10 ng/ml)?
Its value is −11.8%.

What about the “Percentage improvement … (%)” value (ICR mice [3]; AD patient CSF 8056_Visit 9 pretreated with 10 ng/ml) of the same molecule?
Its value is 86.8%.

And the “Percentage improvement … (%)” value (ICR mice [3]; AD patient CSF 8057_Visit 8 pretreated with 10 ng/ml)?
The value was 59.3%.

What about the “Percentage improvement … (%)” value (ICR mice [3]; AD patient CSF 8060_Visit 6 pretreated with 10 ng/ml) of the same molecule?
The value was 46.0%.

What about the “Percentage improvement … (%)” value (ICR mice [3]; AD patient CSF 8061_Visit 5 pretreated with 10 ng/ml) of the same molecule?
The value was 65.6%.

What about the “Percentage improvement … (%)” value (ICR mice [3]; AD patient CSF 8076_Visit 8 pretreated with 10 ng/ml) of the same molecule?
Its value is 68.3%.

What about the “Percentage improvement … (%)” value (ICR mice [3]; AD patient CSF 8091_Visit 5 pretreated with 10 ng/ml) of the same molecule?
Its value is 56.3%.

What about the “Percentage improvement … (%)” value (ICR mice [3]; AD patient CSF 8092_Visit 3 pretreated with 10 ng/ml) of the same molecule?
Its value is 87.7%.

And the “Percentage improvement … (%)” value (ICR mice [3]; AD patient CSF 8108_Visit 6 pretreated with 10 ng/ml)?
The value was 82.0%.

What about the “Percentage improvement … (%)” value (ICR mice [3]; AD patient CSF 8109_Visit 5 pretreated with 10 ng/ml) of the same molecule?
Its value is 90.7%.

And the “Percentage improvement … (%)” value (ICR mice [3]; AD patient CSF 8189_Visit 3 pretreated with 10 ng/ml)?
The value was 83.1%.

What about the “Percentage improvement … (%)” value (ICR mice [3]; AD patient CSF 8211_Visit 2 pretreated with 10 ng/ml) of the same molecule?
The value was 90.0%.

And the “improvement of spontaneous alternation by 6E4HV0LV0 pretreatment” value (ICR mice [3]; in 6 out of the 15 AD patient CSF samples)?
The value was ≥ 40%.

And the “improvement of spontaneous alternation by 6E4HV0LV0 pretreatment” value (ICR mice [3]; in 7 out of the 15 AD patient CSF samples)?
The value was ≥ 80%.

What about the “effect of 6E4HV0LV0 pretreatment on cognitive function impairment by normal CSF” value (ICR mice [3]; the one normal CSF (1 out of 11) that impaired cognitive function) of the same molecule?
The value was “did not improve”.
